The target in this assay is T1, GST protein (UniProt P08515 1-218 = GST).
T1 construct: Control protein of the GST pull-down, on glutathione beads; also called protein consisting of the GST part alone; product of pGEX-6P-1
Briefly: GST pull-down with 35S-labeled in vitro translated protein, SDS-PAGE, autoradiography. The procedure:
Using the protein GST-Cbl prepared above in (2), the presence or absence of the direct interaction of human and mouse CbAP40 proteins with the c-Cbl protein was confirmed by the GST-pull down method (Zikken Kougaku, Vol. 13, No. 6, 1994, p. 528, Matsushime, et al.). Using 0.5 μg of pcDNA-CbAP40 prepared above in Example 1(4) or pcDNA-mCbAP40 prepared above in Example 8(2) as a template, and additionally using 40 μl of TNT kit (TNT^R Quick Coupled Transcription/Translation System; Promega) and 1.3 MBq of a radioisotope (redivue Pro-mix L-[³⁵S]; Amersham) according to the attached protocol, human or mouse CbAP40 protein radioactively labeled was prepared by in vitro transcription and translation. Then, 15 μl each of the prepared solution of human or mouse CbAP40 protein was mixed with 1 μl of the GST protein or GST-Cbl purified on glutathione beads as described above in (2) to which 0.3 ml of Buffer A (50 mM Tris-HCl, pH 7.5, 10% glycerol, 120 mM NaCl, 1 mM EDTA, 0.1 mM EGTA, 0.5 mM PMSF, 0.5% NP-40) was added. The resulting mixture was shaken at 4° C. for one hour. Subsequently, the protein binding to the GST protein or GST-Cbl on the bead was co-precipitated by centrifugation. […] Consequently, a band never detected in mixing the GST protein was detected in case of mixing GST-Cbl.

T1 sequence (P08515 whole entry): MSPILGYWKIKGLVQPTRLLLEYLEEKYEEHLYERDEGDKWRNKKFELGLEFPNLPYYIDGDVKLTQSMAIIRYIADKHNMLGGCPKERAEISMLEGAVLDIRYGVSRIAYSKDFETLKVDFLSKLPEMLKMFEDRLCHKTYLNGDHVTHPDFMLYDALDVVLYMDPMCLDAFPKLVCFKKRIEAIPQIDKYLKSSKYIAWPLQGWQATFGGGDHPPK

B1: human CbAP40-V5-His6 fusion protein (other, not shown: small tags and cut ends)
chain: MMSSSWPGTSPRLSRGSGSCLTSGATGPCQADSSLKAGPGAGVFFLSSAEGEQISFLFDCIVRGISPTKGPFGLRPVLPDPSPPGPSTVEERVAQEALETLQLEKRLSLLSHAGRPGSGGDDRSLSSSSSEASHLDVSASSRLTAWPEQSSSSASTSQEGPRPAAAQAAGEAMVGASRPPPKPLRPRQLQEVGRQSSSDSGIATGSHSSYSSSLSSYAGSSLDVWRATDELGSLLSLPAAGAPEPSLCTCLPGTVEYQVPTSLRAHYDTPRSLCLAPRDHSPPSQGSPGNSAARDSGGQTSAGCPSGWLGTRRRGLVMEAPQGSEATLPGPAPGEPWEAGGPHAGPPPAFFSACPVCGGLKVNPPP
modifications: radioactively labeled by in vitro transcription and translation with redivue Pro-mix L-[35S]
notes: Made by in vitro transcription/translation (TNT kit) from pcDNA-CbAP40; 411 amino acids in total with the 45-residue C-terminal tag. 'mature' stands here for the full-length protein (no signal peptide is mentioned); also called human CbAP40 protein; Cbl associated protein 40
Take B1: the binding result is on record as “no binding”.

The record behind these values is patent US20070015155A1 (published 2007).
